Assay results published in patent US20240228660A1 (IP2IPO INNOVATIONS, published 2024).

Molecular target: human full-length VWF (human, UniProt P04275 764-2813)
Assay: SPR, Biacore T200, antibody captured on Protein A, full-length VWF as analyte, single-cycle kinetics

| Kd [nM] | koff [s⁻¹] | kon [M⁻¹ s⁻¹] | Binder |
| --- | --- | --- | --- |
| 0.000125 |  |  | 1-A2_VH-par_VL-par (antibody, human IgG1, kappa, also called 1-A2_parental (hIgG1)) heavy chain: not shown light chain: AIEMTQTPPSLSASVGETVRIRCLASEDIYSGISWYQQKPGKPPTLLIYGASNLESGVPPRFSGSGSGTDYTLTIGGVQAEDAATYYCLGGHSHSTTDLTFGAGTKVEIKTVAAPSVFIFPPSDEQLKSGTASVVCLLNNFYPREAKVQWKVDNALQSGNSQESVTEQDSKDSTYSLSSTLTLSKADYEKHKVYACEVTHQGLSSPVTKSFNRGEC |
| 0.0717 |  |  | 4-H3_VH-par_VL-par (antibody, human IgG1, kappa, also called 4-H3_parental (hIgG1)) heavy chain: not shown light chain: AYDMTQTPPSLSASVGETVRIRCLASEDIASGISWYQQKPGKPPTLLIYGASNLESGVPPRFSGSGSGTDYTLTIGGVQAEDAATYYCLGGYSFSSNGLTFGAGTKVEIKTVAAPSVFIFPPSDEQLKSGTASVVCLLNNFYPREAKVQWKVDNALQSGNSQESVTEQDSKDSTYSLSSTLTLSKADYEKHKVYACEVTHQGLSSPVTKSFNRGEC |
| 0.00707 | 1.81e-07 | 25600 | 1-A2_VH-par_L1 (antibody, human IgG1, kappa, V domains shown, also called 1-A2_L1 (hIgG1K)) VH: SQSVEESGGRLVPPGTPLTLTCTVSGIDLTSNAMNWVRQAPGKGLEWIGGIYGHDTSYYAAWAKGRFTISRTSTTVDLKMTRPTTDDTATYFCARGFIYFDIWGTGTLVTISS VL: DIQMTQSPSSLSASVGDRVTITCLASEDIYSGISWYQQKPGKAPKLLIYGASNLESGVPSRFSGSGSGTDYTLTISSLQPEDFATYYCLGGHSHSTTDLTFGGGTKVEIKT |
| 0.0125 | 5.66e-07 | 45200 | 4-H3_H8_L0 (antibody, human IgG1, kappa, V domains shown, humanised, human IgG1 kappa) VH: QQLVESGGGVVQPGRSLRLSCAASGIDLTSNAMNWVRQAPGKGLEWIGGIYGHDTSYYAAWAKGRFTISRDSNTVYLQMNSLRAEDTATYFCARGFIYFDIWGQGTLVTVSS VL: DIQMTQSPSSLSASVGDRVTITCLASEDIASGISWYQQKPGKAPKLLIYGASNLESGVPSRFSGSGSGTDFTLTISSLQPEDFATYYCLGGYSFSSNGLTFGGGTKVEIKT |
| 0.0173 | 9.15e-07 | 52800 | 4-H3_H8_L1 (antibody, human IgG1, kappa, V domains shown, humanised, human IgG1 kappa) VH: QQLVESGGGVVQPGRSLRLSCAASGIDLTSNAMNWVRQAPGKGLEWIGGIYGHDTSYYAAWAKGRFTISRDSNTVYLQMNSLRAEDTATYFCARGFIYFDIWGQGTLVTVSS VL: DYQMTQSPSSLSASVGDRVTITCLASEDIASGISWYQQKPGKAPKLLIYGASNLESGVPSRFSGSGSGTDYTLTISSLQPEDFATYYCLGGYSFSSNGLTFGGGTKVEIKT |
| 0.00203 | 3.84e-08 | 19000 | 1-A2_H2_L1 (antibody, human IgG1, kappa, V domains shown, humanised, human IgG1 kappa) VH: QQLVESGGGVVQPGRSLRLSCAASGIDLTSNAMNWVRQAPGKGLEWIGGIYGHDTSYYAAWAKGRFTISRDSNTVYLQMNSLRAEDTATYFCARGFIYFDIWGQGTLVTVSS VL: DIQMTQSPSSLSASVGDRVTITCLASEDIYSGISWYQQKPGKAPKLLIYGASNLESGVPSRFSGSGSGTDYTLTISSLQPEDFATYYCLGGHSHSTTDLTFGGGTKVEIKT |
| 0.000231 | 2.74e-08 | 119000 | 1-A2_H0_L0 (antibody, human IgG1, kappa, V domains shown, humanised, human IgG1 kappa) VH: QVQLVESGGGVVQPGRSLRLSCAASGFTFSSNAMNWVRQAPGKGLEWVAGIYGHDTSYYAAWAKGRFTISRDNSKNTLYLQMNSLRAEDTAVYYCARGFIYFDIWGQGTLVTVSS VL: DIQMTQSPSSLSASVGDRVTITCLASEDIYSGISWYQQKPGKAPKLLIYGASNLESGVPSRFSGSGSGTDFTLTISSLQPEDFATYYCLGGHSHSTTDLTFGGGTKVEIKT |
| 0.00143 | 1.75e-08 | 12300 | 4-H3_VH-par_L1 (antibody, human IgG1, kappa, V domains shown, also called 4-H3_L1 (hIgG1K)) VH: SQSLEESGGRLVPPGTPLTLTCTVSGIDLTSNAMNWVRQAPGKGLEWIGGIYGHDTSYYAAWAKGRFTISRTSTTVDLKMTRPTTDDTATYFCARGFIYFDIWGTGTLVTISS VL: DYQMTQSPSSLSASVGDRVTITCLASEDIASGISWYQQKPGKAPKLLIYGASNLESGVPSRFSGSGSGTDYTLTISSLQPEDFATYYCLGGYSFSSNGLTFGGGTKVEIKT |
| 0.0432 | 2.73e-06 | 63200 | 1-A2_H0_L1 (antibody, human IgG1, kappa, V domains shown, humanised, human IgG1 kappa) VH: QVQLVESGGGVVQPGRSLRLSCAASGFTFSSNAMNWVRQAPGKGLEWVAGIYGHDTSYYAAWAKGRFTISRDNSKNTLYLQMNSLRAEDTAVYYCARGFIYFDIWGQGTLVTVSS VL: DIQMTQSPSSLSASVGDRVTITCLASEDIYSGISWYQQKPGKAPKLLIYGASNLESGVPSRFSGSGSGTDYTLTISSLQPEDFATYYCLGGHSHSTTDLTFGGGTKVEIKT |
| 0.00589 | 1.4e-07 | 23800 | 1-A2_H1_L1 (antibody, human IgG1, kappa, V domains shown, humanised, human IgG1 kappa) VH: QVQLVESGGGVVQPGRSLRLSCAASGIDLTSNAMNWVRQAPGKGLEWVAGIYGHDTSYYAAWAKGRFTISRDNSKNTLYLQMNSLRAEDTAVYYCARGFIYFDIWGQGTLVTVSS VL: DIQMTQSPSSLSASVGDRVTITCLASEDIYSGISWYQQKPGKAPKLLIYGASNLESGVPSRFSGSGSGTDYTLTISSLQPEDFATYYCLGGHSHSTTDLTFGGGTKVEIKT |
| 0.00173 | 8.46e-08 | 48800 | 4-H3_VH-par_L0 (antibody, human IgG1, kappa, V domains shown, also called 4-H3_L0 (hIgG1K)) VH: SQSLEESGGRLVPPGTPLTLTCTVSGIDLTSNAMNWVRQAPGKGLEWIGGIYGHDTSYYAAWAKGRFTISRTSTTVDLKMTRPTTDDTATYFCARGFIYFDIWGTGTLVTISS VL: DIQMTQSPSSLSASVGDRVTITCLASEDIASGISWYQQKPGKAPKLLIYGASNLESGVPSRFSGSGSGTDFTLTISSLQPEDFATYYCLGGYSFSSNGLTFGGGTKVEIKT |
| 0.0187 | 6.54e-07 | 34900 | 1-A2_H1_L0 (antibody, human IgG1, kappa, V domains shown, humanised, human IgG1 kappa) VH: QVQLVESGGGVVQPGRSLRLSCAASGIDLTSNAMNWVRQAPGKGLEWVAGIYGHDTSYYAAWAKGRFTISRDNSKNTLYLQMNSLRAEDTAVYYCARGFIYFDIWGQGTLVTVSS VL: DIQMTQSPSSLSASVGDRVTITCLASEDIYSGISWYQQKPGKAPKLLIYGASNLESGVPSRFSGSGSGTDFTLTISSLQPEDFATYYCLGGHSHSTTDLTFGGGTKVEIKT |
| 0.0969 | 3.5e-06 | 36100 | 1-A2_H2_L0 (antibody, human IgG1, kappa, V domains shown, humanised, human IgG1 kappa) VH: QQLVESGGGVVQPGRSLRLSCAASGIDLTSNAMNWVRQAPGKGLEWIGGIYGHDTSYYAAWAKGRFTISRDSNTVYLQMNSLRAEDTATYFCARGFIYFDIWGQGTLVTVSS VL: DIQMTQSPSSLSASVGDRVTITCLASEDIYSGISWYQQKPGKAPKLLIYGASNLESGVPSRFSGSGSGTDFTLTISSLQPEDFATYYCLGGHSHSTTDLTFGGGTKVEIKT |
| 0.0125 | 7.44e-07 | 59600 | 1-A2_VH-par_L0 (antibody, human IgG1, kappa, V domains shown, also called 1-A2_L0 (hIgG1K)) VH: SQSVEESGGRLVPPGTPLTLTCTVSGIDLTSNAMNWVRQAPGKGLEWIGGIYGHDTSYYAAWAKGRFTISRTSTTVDLKMTRPTTDDTATYFCARGFIYFDIWGTGTLVTISS VL: DIQMTQSPSSLSASVGDRVTITCLASEDIYSGISWYQQKPGKAPKLLIYGASNLESGVPSRFSGSGSGTDFTLTISSLQPEDFATYYCLGGHSHSTTDLTFGGGTKVEIKT |
| 0.0109 | 5.99e-07 | 54900 | 4-H3_H8_VL-par (antibody, human IgG1, kappa, V domains shown, also called 4-H3_H8 (hIgG1)) VH: QQLVESGGGVVQPGRSLRLSCAASGIDLTSNAMNWVRQAPGKGLEWIGGIYGHDTSYYAAWAKGRFTISRDSNTVYLQMNSLRAEDTATYFCARGFIYFDIWGQGTLVTVSS VL: AYDMTQTPPSLSASVGETVRIRCLASEDIASGISWYQQKPGKPPTLLIYGASNLESGVPPRFSGSGSGTDYTLTIGGVQAEDAATYYCLGGYSFSSNGLTFGAGTKVEIKT |
| 0.00655 | 3.63e-07 | 55300 | 4-H3_H6_VL-par rep (antibody, human IgG1, kappa, also called 4-H3_H6 (hIgG1)) heavy chain: not shown light chain: AYDMTQTPPSLSASVGETVRIRCLASEDIASGISWYQQKPGKPPTLLIYGASNLESGVPPRFSGSGSGTDYTLTIGGVQAEDAATYYCLGGYSFSSNGLTFGAGTKVEIKTVAAPSVFIFPPSDEQLKSGTASVVCLLNNFYPREAKVQWKVDNALQSGNSQESVTEQDSKDSTYSLSSTLTLSKADYEKHKVYACEVTHQGLSSPVTKSFNRGEC |
| 0.318 | 7.8e-06 | 24500 | 1-A2_H2_VL-par (antibody, human IgG1, kappa, V domains shown, also called 1-A2_H2 (hIgG1)) VH: QQLVESGGGVVQPGRSLRLSCAASGIDLTSNAMNWVRQAPGKGLEWIGGIYGHDTSYYAAWAKGRFTISRDSNTVYLQMNSLRAEDTATYFCARGFIYFDIWGQGTLVTVSS VL: AIEMTQTPPSLSASVGETVRIRCLASEDIYSGISWYQQKPGKPPTLLIYGASNLESGVPPRFSGSGSGTDYTLTIGGVQAEDAATYYCLGGHSHSTTDLTFGAGTKVEIKT |
| 0.0238 | 9.49e-07 | 39800 | 1-A2_H1_VL-par (antibody, human IgG1, kappa, V domains shown, also called 1-A2_H1 (hIgG1)) VH: QVQLVESGGGVVQPGRSLRLSCAASGIDLTSNAMNWVRQAPGKGLEWVAGIYGHDTSYYAAWAKGRFTISRDNSKNTLYLQMNSLRAEDTAVYYCARGFIYFDIWGQGTLVTVSS VL: AIEMTQTPPSLSASVGETVRIRCLASEDIYSGISWYQQKPGKPPTLLIYGASNLESGVPPRFSGSGSGTDYTLTIGGVQAEDAATYYCLGGHSHSTTDLTFGAGTKVEIKT |
| 0.0176 | 6.18e-07 | 35100 | 1-A2_H0_VL-par (antibody, human IgG1, kappa, V domains shown, also called 1-A2_H0 (hIgG1)) VH: QVQLVESGGGVVQPGRSLRLSCAASGFTFSSNAMNWVRQAPGKGLEWVAGIYGHDTSYYAAWAKGRFTISRDNSKNTLYLQMNSLRAEDTAVYYCARGFIYFDIWGQGTLVTVSS VL: AIEMTQTPPSLSASVGETVRIRCLASEDIYSGISWYQQKPGKPPTLLIYGASNLESGVPPRFSGSGSGTDYTLTIGGVQAEDAATYYCLGGHSHSTTDLTFGAGTKVEIKT |
| 0.0104 | 3.05e-07 | 29300 | 4-H3_H7_VL-par (antibody, human IgG1, kappa, V domains shown, also called 4-H3_H7 (hIgG1)) VH: QVQLVESGGGVVQPGRSLRLSCAASGIDLTSNAMNWVRQAPGKGLEWIGGIYGHDTSYYAAWAKGRFTISRDNSKNTVYLQMNSLRAEDTATYFCARGFIYFDIWGQGTLVTVSS VL: AYDMTQTPPSLSASVGETVRIRCLASEDIASGISWYQQKPGKPPTLLIYGASNLESGVPPRFSGSGSGTDYTLTIGGVQAEDAATYYCLGGYSFSSNGLTFGAGTKVEIKT |
